# Test system: Escherichia coli TOP10
# Assay: shrunken log2 fold change of peptide-encoding DNA abundance (4.5 h post-induction vs induction); higher = less antimicrobial activity (less host growth inhibition)
# Details: time post-induction: 4.5 h; library: site-saturation at positions 5, 18, 19, 20
# 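Also: peptides expressed intracellularly from a pBAD plasmid library in pooled LB shake-flask culture, induced with 0.3% L-arabinose, DNA abundance read by NGS, three biological replicates, DESeq2 with apeglm shrinkage.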
row,Sequence,shrunken log2 fold change
1,RRIRCRPPRLPRPRPRPPDCPRP,0.177
2,RRIRFRPPRLPRPRPRPYDHPRP,-0.0263
3,RRIRYRPPRLPRPRPRPPSSPRP,-0.154
4,RRIRGRPPRLPRPRPRPRWIPRP,0.152
5,RRIRLRPPRLPRPRPRPEREPRP,0.0872
6,RRIRYRPPRLPRPRPRPNLFPRP,-0.676
7,RRIRLRPPRLPRPRPRPHTRPRP,-0.0601
8,RRIRARPPRLPRPRPRPVSMPRP,0.229
9,RRIRCRPPRLPRPRPRPMPVPRP,0.161
10,RRIRDRPPRLPRPRPRPMLNPRP,0.21
11,RRIRARPPRLPRPRPRPHFVPRP,0.0302
12,RRIRNRPPRLPRPRPRPGPKPRP,0.284
13,RRIRYRPPRLPRPRPRPVQPPRP,0.219
14,RRIRARPPRLPRPRPRPRGDPRP,3.26
15,RRIRARPPRLPRPRPRPGRCPRP,0.745
16,RRIRFRPPRLPRPRPRPPMTPRP,-0.0559
17,RRIRYRPPRLPRPRPRPPEFPRP,0.00678
18,RRIRHRPPRLPRPRPRPIDYPRP,-0.017
19,RRIRNRPPRLPRPRPRPCIEPRP,-0.117
20,RRIRVRPPRLPRPRPRPGMPPRP,0.0671
21,RRIRERPPRLPRPRPRPITIPRP,-0.0388
22,RRIRGRPPRLPRPRPRPMESPRP,0.295

row,Sequence,shrunken log2 fold change
1,RRIRERPPRLPRPRPRPNIFPRP,-0.302
2,RRIRQRPPRLPRPRPRPKEEPRP,0.00489
3,RRIRMRPPRLPRPRPRPIIIPRP,-0.166
4,RRIRPRPPRLPRPRPRPHFTPRP,-0.302
5,RRIRKRPPRLPRPRPRPTLDPRP,0.877
6,RRIRVRPPRLPRPRPRPPSHPRP,-0.0316
7,RRIRLRPPRLPRPRPRPEFDPRP,0.31
8,RRIRDRPPRLPRPRPRPTEYPRP,-0.154
9,RRIRERPPRLPRPRPRPVWDPRP,0.00068
10,RRIRRRPPRLPRPRPRPEEHPRP,0.107
11,RRIRWRPPRLPRPRPRPCFLPRP,-0.462
12,RRIRNRPPRLPRPRPRPSDWPRP,0.0113
13,RRIRARPPRLPRPRPRPWKPPRP,4.26e-05
14,RRIRTRPPRLPRPRPRPFRKPRP,-0.0396
15,RRIRDRPPRLPRPRPRPIFIPRP,-0.345
16,RRIRYRPPRLPRPRPRPGASPRP,-0.313
17,RRIRQRPPRLPRPRPRPEMVPRP,-0.0549
18,RRIRVRPPRLPRPRPRPWQAPRP,-0.0138
19,RRIRGRPPRLPRPRPRPVAPPRP,1.18
20,RRIRTRPPRLPRPRPRPTRIPRP,-0.204
21,RRIRVRPPRLPRPRPRPTPCPRP,-0.147
22,RRIRLRPPRLPRPRPRPTTHPRP,-0.102

row,Sequence,shrunken log2 fold change
1,RRIRCRPPRLPRPRPRPSFKPRP,-0.75
2,RRIRKRPPRLPRPRPRPPHEPRP,0.491
3,RRIRYRPPRLPRPRPRPVGDPRP,-0.0659
4,RRIRKRPPRLPRPRPRPYDIPRP,-0.119
5,RRIRYRPPRLPRPRPRPRWMPRP,-0.208
6,RRIRERPPRLPRPRPRPHKSPRP,-0.0459
7,RRIRIRPPRLPRPRPRPVTKPRP,-0.359
8,RRIRNRPPRLPRPRPRPTQEPRP,0.786
9,RRIRPRPPRLPRPRPRPAHNPRP,-0.114
10,RRIRVRPPRLPRPRPRPIMTPRP,-0.359
11,RRIRGRPPRLPRPRPRPQFCPRP,0.719
12,RRIRHRPPRLPRPRPRPQARPRP,0.225
13,RRIRDRPPRLPRPRPRPMYHPRP,0.0212
14,RRIRSRPPRLPRPRPRPYGVPRP,0.0325
15,RRIRTRPPRLPRPRPRPQAIPRP,0.209
16,RRIRVRPPRLPRPRPRPQDRPRP,0.0443
17,RRIRHRPPRLPRPRPRPPVTPRP,-0.0642
18,RRIRGRPPRLPRPRPRPTWWPRP,0.906
19,RRIRYRPPRLPRPRPRPYKDPRP,-0.748
20,RRIRFRPPRLPRPRPRPRNDPRP,-0.218
21,RRIRIRPPRLPRPRPRPMREPRP,0.0761
22,RRIRYRPPRLPRPRPRPTEGPRP,-0.96

row,Sequence,shrunken log2 fold change
1,RRIRARPPRLPRPRPRPKPIPRP,0.319
2,RRIRLRPPRLPRPRPRPDKVPRP,-0.0274
3,RRIRVRPPRLPRPRPRPACWPRP,0.517
4,RRIRMRPPRLPRPRPRPLTQPRP,0.175
5,RRIRFRPPRLPRPRPRPYHMPRP,-0.128
6,RRIRMRPPRLPRPRPRPVDWPRP,1.21
7,RRIRLRPPRLPRPRPRPRDKPRP,0.133
8,RRIRRRPPRLPRPRPRPKSNPRP,0.0649
9,RRIRQRPPRLPRPRPRPWVCPRP,-0.208
10,RRIRARPPRLPRPRPRPFCTPRP,0.0721
11,RRIRERPPRLPRPRPRPQDAPRP,0.0745
12,RRIRYRPPRLPRPRPRPTCFPRP,-0.222
13,RRIRPRPPRLPRPRPRPVNNPRP,-0.525
14,RRIRQRPPRLPRPRPRPNCQPRP,-0.055
15,RRIRNRPPRLPRPRPRPRGSPRP,0.299
16,RRIRIRPPRLPRPRPRPRFCPRP,-0.00189
17,RRIRPRPPRLPRPRPRPVCIPRP,-0.122
18,RRIRTRPPRLPRPRPRPWAHPRP,-0.0917
19,RRIRNRPPRLPRPRPRPWKGPRP,-0.0198
20,RRIRNRPPRLPRPRPRPHPRPRP,0.0824
21,RRIRWRPPRLPRPRPRPGCGPRP,0.784
22,RRIRARPPRLPRPRPRPQHVPRP,0.0233

row,Sequence,shrunken log2 fold change
1,RRIRIRPPRLPRPRPRPFDPPRP,-0.438
2,RRIRCRPPRLPRPRPRPRKGPRP,0.201
3,RRIRARPPRLPRPRPRPPHNPRP,0.757
4,RRIRERPPRLPRPRPRPMAQPRP,0.00812
5,RRIRARPPRLPRPRPRPTPLPRP,0.601
6,RRIRGRPPRLPRPRPRPANDPRP,0.902
7,RRIRLRPPRLPRPRPRPEPHPRP,0.324
8,RRIRHRPPRLPRPRPRPWDLPRP,-0.245
9,RRIRRRPPRLPRPRPRPFVPPRP,0.127
10,RRIRFRPPRLPRPRPRPHSIPRP,-0.248
11,RRIRGRPPRLPRPRPRPYQPPRP,-0.257
12,RRIRLRPPRLPRPRPRPPRCPRP,0.744
13,RRIRFRPPRLPRPRPRPSDWPRP,0.0908
14,RRIRFRPPRLPRPRPRPYVTPRP,-0.148
15,RRIRQRPPRLPRPRPRPQLIPRP,-0.237
16,RRIRARPPRLPRPRPRPMMLPRP,-0.00455
17,RRIRHRPPRLPRPRPRPPLRPRP,0.287
18,RRIRQRPPRLPRPRPRPERWPRP,0.251
19,RRIRRRPPRLPRPRPRPTPNPRP,0.945
20,RRIRRRPPRLPRPRPRPFWCPRP,-0.18
21,RRIRCRPPRLPRPRPRPDRHPRP,0.0552

# Reference: the supplement of paper PMC9112550, “Optimization of the antimicrobial peptide Bac7 by deep mutational scanning” (BMC Biology, 2022)
